Numbering of substitutions follows the chain as printed.
B1: H4H2780N (antibody, human IgG4, V domains shown)
VH: EVQLVESGGGLVKPGGSLRLSCAASGFTFSTYSMNWVRQAPGKGLEWVSSISSGSSYIYYTDSVKGRFTISRDNAKNSLYLQMNSLRAEDTAVYYCARFGSYYYFGFDVWGQGTTVTVSS
VL: DIQMTQSPSSLSASVGDRVTITCRASQGISNYLAWYQQKPGKVPKLLIFSASTLQSGVPSRFSGSGSGPDFTLTVSSLQPEDVATYYCQKYNSAPFAFGPGTKVDIK
B2: H4H2783N2 (antibody, human IgG4, V domains shown)
VH: EVQLLESGGGLVQPGGSLRLSCAASGFTFSSYVMNWVRQAPGKGLEWVSAISGSGGSTYYADSVKGRSTISRDNSKNTLYLQMNSLRAEDTAIYYCAKGDIAAIVFDAFDIWGQGTVVTVSS
VL: DIQMTQSPSSLSASVGDRVTITCQASQDISSALNWYQHKPGKAPKLLIYDASYLETGVPSRFSGSGSGTDFTFTISSLQPEDIATYYCQQYDNLPYTFGQGTKLEIK
B3: H4H2889N (antibody, human IgG4, V domains shown)
VH: QVQLQESGPGLVKPSETLSLTCTVSGGSISNSYWSWIRQPPGKGLEWIGYIYYSGNTNYNPSLKSRVTISVDTSKNQFSLKLSSVTAADTAVYYCARVNDYSNYDSYYYGMDVWGQGTTVTVSS
VL: AIQMTQSPSSLSASVGDRVTITCRASQGIRNDLGWYQQKPGKAPKLLIYAASSLQSGVPSRFSGSGSGTDFTLTISSLQPEDFATYYCLQDYNYPPTFGQGTKVDIK
B4: H4H2892N (antibody, human IgG4, V domains shown)
VH: QVQLVESGGGVVQPGRSLRLSCAASGFTFSSYGIHWVRQAPGKGLEWVAILWYDGSNKYYADSVKGRFTISRDNSKTTLYLQMNSLRAEDTAVYYCARENYNDLNFDLWGRGTLVTVSS
VL: DIQLTQSPSFLSASVGDRVTITCWASQGISSYLAWYQHKPGKAPKLLIYAASTLQSGVPSRFSGSGSGIEFTLTISSLQPEDFATYYCQQLKSYPPWTFGQGTKVEIR
B5: H4H2895N (antibody, human IgG4, V domains shown)
VH: EVQLVESGGGLVQPGGSLRLSCAASGFTVSSNYMSWVRQAPGKGLEWVSVIYSGGNTYYADSVKGRFTISRHNSKNTLYLQMNSLRAEDTAVYYCARDLGIKSDYWGQGTLVTVSS
VL: EIVLTQSPDFQSVTPKEKVTITCRASQSIGTTLHWYQQKPDQSPKLLIKYVSQSLSGVPSRFSGSGSGTDFTLTINSLEAEDAATYYCHQSSSLPWTFGQGTKVEIK
B6: H4H2926N (antibody, human IgG4, V domains shown)
VH: EVQLVESGGGLVQTGRSLRLSCAASGFTFDDYAMNWVRQAPGKGLEWVSGISWNSGNIGYADSVKGRFTISRDNAKNSLYLQMNSLRAEDTALYYCVKYIGQQLVQDYFDYWGQGTLVTVSS
VL: DIQMTQSPSSLSASVGDRVTITCQASQDITNYLNWYQQRPGKAPKLLIYDAFNLERGVPSRFSGSGYGTYFTFTISSLQPEDIAIYYCQQYDNLPLTFGGGTKVEIE
B7: H4H6232P (antibody, human IgG4, V domains shown)
VH: QVQLVQSGAEVKKPGASVKVSCKVSGYTLTELSMHWVRQAPGKGLEWMGGFDPEDGETIYAQKFQGRLTMTEDTSTDTAYMELSSLRSEDTAVYYCATDDYDILTSYPYNMDVWGQGTTVTVSS
VL: DIQMTQSPSSLSASVGDRVTITCRASQSINNYLNWYQQKPGKAPKLLIYAASSLQSGVPSRFSGSGSGTDFTLTISSLQPEDFGTYYCQQSDSTPFTFGPGTKVDIK
B8: H4H6240P (antibody, human IgG4, V domains shown)
VH: QVQLVESGGGVVQPGRSLRLSCAASGFTFSSYGMHWVRQAPGKGLEWVAVIWYDGSNKYYADSVKGRFIISRDNSKNMMYLQMNSLRAEDTAVYYCAREDNWNYAFDYWGQGTLVTVSS
VL: EIVMTQSPATLSVSPGERATLSCRASQSISSNLAWYQQKPGQAPRLLIYDSSTRATGIPARFSGSGSGTQFTLTISSLQSEDFALYYCQQYSNWPPFTFGPGTKVDIK
B9: H4H6243P (antibody, human IgG4, V domains shown)
VH: B7 VH with G66D, L68V, A97V, D102E, T105P, S106E
VL: B7 VL with N30S, N31T, S76R, G84A, D92H, S93I
B10: H4H6245P (antibody, human IgG4, V domains shown)
VH: EVQLVESGGGLVQPGGSLRLSCAASGFTFNSFWMSWVRQAPGKGLEWVANIKQDGSEKYYVDSVKGRFTISRDNAKNSVYLQMNSLRAEDTAVYYCARDLVTSFDYWGQGTLVTVSS
VL: B2 VL with S30N, S31N, A32Y, H38Q, R61G, N93S
B11: H4H6246P (antibody, human IgG4, V domains shown)
VH: QVQLVESGGGVVQPGRSLRLSCAASGFTFSSYGMHWVRQAPGKGLEWVAIIWYDGSNRYYADSVKGRFTISRDNSRNTLYLQMNSLRAEDTAVYYCARDEYGDYDYPFDYWGQGTLVTVSS
VL: DIQMTQSPSSLSASVGDRVTITCRASQGIRNDLGWFQQKPGKAPKRLIYAASSLQSGVPSRFSGSGSGTEFTLTISSLQPEDFATYYCLQHNTYPPFTFGPGTKVDIK
B12: H4H6269P (antibody, human IgG4, V domains shown)
VH: QVQLQESGPGLVKPSQTLSLTCTVSGGSISSGGYYWTWIRQHPGKGLEWIGYIYYSGSTYYNPSLKSRVTMSVDTSKNQFSLKLSSVTAADTAVYYCARLLDFDYWGQGTLVTVSS
VL: B3 VL with T69R, T85S, Y92H, P96L, Q100G, D105E

Experiments:
[1] = target: recombinant human GREM1 (hGREM1-His; C-terminal 10His tagged, R&D, #5190-GR) (human) (UniProt O60565); test: cell-based or functional assay
Chain of recombinant human GREM1 (hGREM1-His; C-terminal 10His tagged, R&D, #5190-GR) (human) (O60565 other isoform, or with tags, fused parts or gaps limits assumed, form in doubt): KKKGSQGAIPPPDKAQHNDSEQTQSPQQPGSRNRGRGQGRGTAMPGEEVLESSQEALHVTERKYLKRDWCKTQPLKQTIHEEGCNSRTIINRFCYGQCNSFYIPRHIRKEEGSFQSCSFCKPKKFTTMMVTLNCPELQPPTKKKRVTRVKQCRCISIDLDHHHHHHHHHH

[2] = target: recombinant human GREM1 (hGREM1-His; C-terminal 10His tagged, R&D, #5190-GR) (human) (UniProt O60565); test: BLI Octet, captured mAb, 100 nM GREM1 without vs with 5 uM heparin
[3] = target: recombinant human GREM1 (hGREM1-His; C-terminal 10His tagged, R&D, #5190-GR) (human) (UniProt O60565); test: BLI Octet, captured mAb, 100 nM GREM1 + 5 uM heparin
[4] = target: recombinant human GREM1 (hGREM1-His; C-terminal 10His tagged, R&D, #5190-GR) (human) (UniProt O60565); test: BLI Octet, captured mAb, 100 nM GREM1

Row | Binder | IC50 [M], W-20-17/BRE-luc luciferase bioassay, 100 pM hBMP4 and 10 nM hGREM1-His [1] | Reduction in Signal from Heparin at 30 sec [2] | Reduction in Signal from Heparin at 300 sec [2] | Binding Signal with 30 sec Association (nm) [3] | Binding Signal with 300 sec Association (nm) [3] | Binding Signal with 30 sec Association (nm) [4] | Binding Signal with 300 sec Association (nm) [4] | hGREM1-His Inhibition IC50, M; W-20-17 cell differentiation assay (alkaline phosphatase) [1]
1 | B1 | 49 | 0 nm | 0 nm | 0.13 nm | 0.58 nm | 0.13 nm | 0.58 nm | 
2 | B2 | 1.3e-09 M | 0.28 nm | 0.18 nm | 0.01 nm | 0.29 nm | 0.29 nm | 0.47 nm | 5.6 nM
3 | B3 | 1.2e-09 M | 0.15 nm | 0.02 nm | 0.05 nm | 0.44 nm | 0.2 nm | 0.46 nm | 5.4 nM
4 | B4 | 9.5e-10 M | 0.05 nm | 0 nm | 0.15 nm | 0.49 nm | 0.2 nm | 0.49 nm | 4.4 nM
5 | B5 | 5.8e-10 M | -0.07 nm | -0.04 nm | 0.22 nm | 0.54 nm | 0.15 nm | 0.5 nm | 1.9 nM
6 | B6 | 1.2e-09 M | 0.16 nm | 0.07 nm | 0.07 nm | 0.42 nm | 0.23 nm | 0.49 nm | 13 nM
7 | B7 | 7.8e-10 M | 0.27 nm | 0.02 nm | 0.06 nm | 0.46 nm | 0.33 nm | 0.48 nm | 4.5 nM
8 | B8 | 8.1e-10 M | 0.18 nm | 0.16 nm | 0.05 nm | 0.37 nm | 0.23 nm | 0.53 nm | 7.8 nM
9 | B9 | 5.4e-10 M | 0.3 nm | 0.26 nm | 0 nm | 0.21 nm | 0.3 nm | 0.47 nm | 5.9 nM
10 | B10 | 5.3e-10 M | 0.21 nm | 0.19 nm | 0.02 nm | 0.22 nm | 0.23 nm | 0.41 nm | 6.1 nM
11 | B11 | 5.6e-10 M | 0.13 nm | 0.04 nm | 0.06 nm | 0.34 nm | 0.19 nm | 0.38 nm | 6.2 nM
12 | B12 |  | 0.01 nm | 0.08 nm | 0.14 nm | 0.52 nm | 0.15 nm | 0.6 nm | 
